This passage reports Kd results from the Immune Epitope Database (IEDB).

One experiment has as its target HLA-B*73:01. The experiment is described as follows: IEDB peptide-MHC binding, purified MHC/direct/fluorescence; filed as Kd, often an IC50 or EC50 that approximates it; ≥ and ≤ were set here for values at or beyond the usual limits of such assays. The conditions noted are these: source organism: Homo sapiens.
The next experiment addresses HLA-B*15:42. The experiment is described as follows: IEDB peptide-MHC binding, purified MHC/competitive/fluorescence; filed as Kd, often an IC50 or EC50 that approximates it; ≥ and ≤ were set here for values at or beyond the usual limits of such assays. The settings on record: source organism: Homo sapiens.
For a further experiment, the target named is HLA-B*45:06. The experiment is described as above. The settings on record: source organism: Homo sapiens.
Another experiment concerns the target HLA-A*32:07. The description is as above. The settings on record: source organism: Homo sapiens.
Another experiment concerns the target HLA-B*83:01. The description is as above. The conditions noted are these: source organism: Homo sapiens.
In another experiment the target is HLA-A*69:01. The experiment is described as follows: IEDB peptide-MHC binding, purified MHC/direct/fluorescence; filed as Kd, often an IC50 or EC50 that approximates it; ≥ and ≤ were set here for values at or beyond the usual limits of such assays.
A further experiment concerns the target HLA-B*58:01. The description is as above.
The target in a further experiment is HLA-A*11:01. The experiment is described as above.
The target in a further experiment is HLA-C*12:03. The description is as above. The conditions noted are these: source organism: Escherichia coli O157:H7 str. EDL933.
The target of a further experiment is HLA-B*15:02. The description is as above.
The target of the next experiment is HLA-A*31:01. The description is as above.
For another experiment, the target named is HLA-B*08:03. The description is as above.
Another experiment has as its target HLA-A*68:02. The experiment is described as above.
The next experiment concerns the target HLA-B*15:17. Described as above.
Another experiment has as its target HLA-B*57:01. Described as above.
The target in a further experiment is HLA-A*01:01. The experiment is described as above.
The target in a further experiment is HLA-B*08:01. The experiment is described as above.
The target of the next experiment is HLA-B*15:01. The description is as above.
The next experiment deals with HLA-A*02:01. Described as above.
Another experiment addresses HLA-B*46:01. The experiment is described as above.
The next experiment concerns the target HLA-B*39:01. The description is as above. The settings on record: source organism: Escherichia coli O157:H7 str. EC869.
The target in the next experiment is HLA-B*07:02. The experiment is described as above.
The next experiment addresses HLA-B*48:01. The experiment is described as above.
A further experiment deals with HLA-A*03:01. Described as above.
A further experiment addresses HLA-A*26:02. Described as above. The conditions noted are these: source organism: Escherichia coli O157:H7 str. EC869.
The target of the next experiment is HLA-B*27:05. The experiment is described as above.
The target in another experiment is HLA-B*15:09. Described as above.
The next experiment concerns the target HLA-A*30:01. The experiment is described as follows: IEDB peptide-MHC binding, purified MHC/competitive/fluorescence; filed as Kd, often an IC50 or EC50 that approximates it; ≥ and ≤ were set here for values at or beyond the usual limits of such assays.
A further experiment has as its target HLA-B*35:01. The experiment is described as follows: IEDB peptide-MHC binding, purified MHC/direct/fluorescence; filed as Kd, often an IC50 or EC50 that approximates it; ≥ and ≤ were set here for values at or beyond the usual limits of such assays. The settings on record: source organism: Salmonella enterica subsp. enterica serovar Typhimurium.
For the next experiment, the target named is HLA-B*44:02. Described as above. The settings on record: source organism: Salmonella enterica.
A further experiment concerns the target HLA-B*40:01. The description is as above. The conditions noted are these: source organism: Salmonella enterica subsp. enterica serovar Typhimurium.
The target of experiment [1] is HLA-A*26:01. Described as above. The settings on record: source organism: Salmonella enterica.
A further experiment deals with HLA-A*26:03. Described as above. The conditions noted are these: source organism: Variola virus.
For experiment [2], the target named is HLA-A*26:01. The experiment is described as follows: IEDB peptide-MHC binding, purified MHC/competitive/fluorescence; filed as Kd, often an IC50 or EC50 that approximates it; ≥ and ≤ were set here for values at or beyond the usual limits of such assays. The conditions noted are these: source organism: Variola virus.
[3] abbreviates: source organism: Escherichia coli O157:H7.
Setting [4] is: source organism: Escherichia coli O157:H7 str. EC869.
[5] abbreviates: source organism: Salmonella enterica.

Bounds are passed on as bounds.

For orientation: Kd means the equilibrium constant for the complex coming apart. Low readings indicate tighter binding, high ones weaker binding. With MAWLFFWAI, the Kd with HLA-B*73:01 is at least 20 µM; with HLA-B*15:42, at least 5 µM; with HLA-B*45:06, at least 5 µM; in the experiment with HLA-A*32:07, 3.39 µM; with HLA-B*83:01 it was at least 5 µM.

Consider YQAFRTKVH, for which the Kd with HLA-A*69:01 (setting [3]) was at least 20 µM; with HLA-B*58:01 (setting [3]), at least 20 µM; with HLA-A*11:01 (setting [3]), at least 20 µM; with HLA-C*12:03, 204 nM; with HLA-B*15:02 (setting [3]) it was at least 20000 nM; with HLA-A*31:01 (setting [3]), at least 20 µM. The Kd was at least 20 µM in the experiment with HLA-B*08:03 (setting [4]); at least 20 µM in the experiment with HLA-A*68:02 (setting [3]); at least 20000 nM with HLA-B*15:17 (setting [3]); at least 20 µM with HLA-B*57:01 (setting [3]); at least 20 µM with HLA-A*01:01 (setting [3]); at least 20 µM in the experiment with HLA-B*08:01 (setting [4]). In addition, the Kd with HLA-B*15:01 (setting [3]) is 10 nM; in the experiment with HLA-A*02:01 (setting [3]), at least 20 µM; with HLA-B*46:01 (setting [3]), at least 20 µM; with HLA-B*39:01, at least 20 µM; with HLA-B*07:02 (setting [3]) it was at least 20 µM; with HLA-B*48:01 (setting [3]), at least 20 µM. Besides, the Kd with HLA-A*03:01 (setting [3]), with HLA-A*26:02, in the experiment with HLA-B*27:05 (setting [3]), in the experiment with HLA-B*15:09 (setting [4]) and with HLA-A*30:01 (source organism: Escherichia coli O157:H7 str. EDL933) was at least 20 µM in each case.

For MQQSGDEAF, the Kd is at least 20 µM in the experiment with HLA-A*69:01 (setting [5]); at least 20 µM with HLA-B*58:01 (setting [5]); at least 20 µM with HLA-A*11:01 (setting [5]); 32 nM with HLA-B*15:02 (source organism: Salmonella enterica subsp. enterica serovar Typhimurium str. LT2); at least 20 µM with HLA-A*31:01 (setting [5]); 147 nM in the experiment with HLA-B*35:01. The Kd with HLA-B*44:02 was at least 20 µM; in the experiment with HLA-A*01:01 (setting [5]) it was at least 20 µM; in the experiment with HLA-B*08:01 (setting [5]), at least 20 µM; with HLA-B*15:01 (source organism: Salmonella enterica subsp. enterica serovar Typhimurium) it was 200 nM; with HLA-B*40:01, 1010 nM; in the experiment with HLA-A*02:01 (setting [5]), at least 20 µM. Also, the Kd with HLA-B*46:01 (setting [5]), in the experiment with HLA-B*07:02 (setting [5]), with HLA-A*03:01 (setting [5]), with HLA-A*26:01 [1] and with HLA-B*27:05 (setting [5]) was at least 20 µM in each case.

In the case of ILQDRIRMY, the Kd with HLA-A*69:01 (source organism: Cowpox virus) is at least 20 µM; with HLA-B*58:01 (source organism: Cowpox virus), at least 20 µM; in the experiment with HLA-A*11:01 (source organism: Cowpox virus), at least 20 µM; with HLA-B*15:02 (source organism: Variola virus) it was 20 nM; with HLA-A*31:01 (source organism: Cowpox virus), at least 20 µM; with HLA-B*08:03 (source organism: Variola virus), at least 20 µM. Besides, the Kd with HLA-A*68:02 (source organism: Cowpox virus) was at least 20 µM; in the experiment with HLA-B*15:17 (source organism: Cowpox virus), 737 nM; with HLA-B*57:01 (source organism: Cowpox virus), at least 20 µM; with HLA-A*01:01 (source organism: Cowpox virus) it was at least 20 µM; in the experiment with HLA-B*08:01 (source organism: Variola virus) it was at least 20 µM; in the experiment with HLA-B*15:01 (source organism: Cowpox virus), 126 nM. In addition, the Kd with HLA-A*02:01 (source organism: Cowpox virus), with HLA-B*46:01 (source organism: Cowpox virus), with HLA-B*07:02 (source organism: Cowpox virus), in the experiment with HLA-B*48:01 (source organism: Cowpox virus), with HLA-A*26:03 and with HLA-B*27:05 (source organism: Cowpox virus) was at least 20 µM throughout. In addition, the Kd with HLA-B*15:09 (source organism: Variola virus), with HLA-A*26:01 [2] and with HLA-A*30:01 (source organism: Variola virus) was at least 20 µM each time.
